Substrate in data set [1]: C[C@H](N)C(=O)O
Description: purified protein, by the assay type. Conditions: other: 15 mM 2-oxoglutarate.

Substrate in data set [2]: N[C@@H](CC(=O)O)C(=O)O
Nature of the data set: purified protein, by the assay type.

Drawing on patent US4235962A, “Combination kit for transaminase assay of a body fluid” (The Dow Chemical Company, priority 1978, dated 1980), this text covers Km for 2 proteins.

B1: ALT (alanine 2-oxoglutarate aminotransferase) (Homo sapiens) (protein)
chain: ASSTGDRSQAVRHGLRAKVLTLDGMNPRVRRVEYAVRGPIVQRALELEQELRQGVKKPFTEVIRANIGDAQAMGQRPITFLRQVLALCVNPDLLSSPNFPDDAKKRAERILQACGGHSLGAYSVSSGIQLIREDVARYIERRDGGIPADPNNVFLSTGASDAIVTVLKLLVAGEGHTRTGVLIPIPQYPLYSATLAELGAVQVDYYLDEERAWALDVAELHRALGQARDHCRPRALCVINPGNPTGQVQTRECIEAVIRFAFEERLFLLADEVYQDNVYAAGSQFHSFKKVLMEMGPPYAGQQELASFHSTSKGYMGECGFRGGYVEVVNMDAAVQQQMLKLMSVRLCPPVPGQALLDLVVSPPAPTDPSFAQFQAEKQAVLAELAAKAKLTEQVFNEAPGISCNPVQGAMYSFPRVQLPPRAVERAQELGLAPDMFFCLRLLEETGICVVPGSGFGQREGTYHFRMTILPPLEKLRLLLEKLSRFHAKFTLEYS
For B1, in data set [1], the Michaelis-Menten constant (Km) (as a rule, the concentration of substrate that gives half-maximal velocity) is reported as 18.1 mM.

B2: AST (aspartate 2-oxoglutarate aminotransferase) (Homo sapiens) (protein)
chain: APPSVFAEVPQAQPVLVFKLTADFREDPDPRKVNLGVGAYRTDDCHPWVLPVVKKVEQKIANDNSLNHEYLPILGLAEFRSCASRLALGDDSPALKEKRVGGVQSLGGTGALRIGADFLARWYNGTNNKNTPVYVSSPTWENHNAVFSAAGFKDIRSYRYWDAEKRGLDLQGFLNDLENAPEFSIVVLHACAHNPTGIDPTPEQWKQIASVMKHRFLFPFFDSAYQGFASGNLERDAWAIRYFVSEGFEFFCAQSFSKNFGLYNERVGNLTVVGKEPESILQVLSQMEKIVRITWSNPPAQGARIVASTLSNPELFEEWTGNVKTMADRILTMRSELRARLEALKTPGTWNHITDQIGMFSFTGLNPKQVEYLVNEKHIYLLPSGRINVSGLTTKNLDYVATSIHEAVTKIQ
With B2, the Km was found to be 0.91 mM in data set [2] (other: 0.2 mM 2-oxoglutarate) and 10 mM in data set [2] (other: 15 mM 2-oxoglutarate).
